In patent US20240218079A1, “PLASMA KALLIKREIN ANTIBODIES AND USES THEREOF” (Astria Therapeutics, Inc., priority 2021, published 2024):

Key:
[1] = molecular target: human plasma kallikrein (human) (UniProt P03952)
[2] = molecular target: human plasma kallikrein (human) (UniProt P03952); remark: listed apart in the source

Sequence of human plasma kallikrein (human) (P03952 20-390 S143N limits assumed, chain 1 of 2): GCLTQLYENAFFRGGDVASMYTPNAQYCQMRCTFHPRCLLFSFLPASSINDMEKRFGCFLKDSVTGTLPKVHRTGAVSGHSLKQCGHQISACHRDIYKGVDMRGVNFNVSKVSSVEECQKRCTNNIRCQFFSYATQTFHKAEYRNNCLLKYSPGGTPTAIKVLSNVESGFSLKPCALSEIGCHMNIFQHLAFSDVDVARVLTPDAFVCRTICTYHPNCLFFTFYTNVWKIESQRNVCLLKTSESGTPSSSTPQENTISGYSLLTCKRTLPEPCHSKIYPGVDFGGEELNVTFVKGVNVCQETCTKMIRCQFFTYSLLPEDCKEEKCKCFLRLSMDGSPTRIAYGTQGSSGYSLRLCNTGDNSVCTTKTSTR
Sequence of human plasma kallikrein (human) (P03952 391-638 limits assumed, chain 2 of 2): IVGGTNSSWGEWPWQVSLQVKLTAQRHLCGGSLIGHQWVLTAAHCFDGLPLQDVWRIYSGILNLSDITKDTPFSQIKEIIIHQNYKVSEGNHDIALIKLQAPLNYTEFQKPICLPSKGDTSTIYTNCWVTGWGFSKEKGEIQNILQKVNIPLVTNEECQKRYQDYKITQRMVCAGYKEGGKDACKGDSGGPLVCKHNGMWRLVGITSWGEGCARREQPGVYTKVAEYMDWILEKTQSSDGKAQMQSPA

- IC50 (read off the curve) [1]: 3 nM
- IC50 (read off the curve), lower panel, 10 nM pKal [2]: 1e-08 M
- IC50 (read off the curve), upper panel, 1 nM pKal [2]: 4e-09 M
B1: C1inh (protein, UniProt P05155 23-500, looked up, species assumed)
Plasma protease C1 inhibitor: NPNATSSSSQDPESLQDRGEGKVATTVISKMLFVEPILEVSSLPTTNSTTNSATKITANTTDEPTTQPTTEPTTQPTIQPTQPTTQLPTDSPTQPTTGSFCPGPVTLCSDLESHSTEAVLGDALVDFSLKLYHAFSAMKKVETNMAFSPFSIASLLTQVLLGAGENTKTNLESILSYPKDFTCVHQALKGFTTKGVTSVSQIFHSPDLAIRDTFVNASRTLYSSSPRVLSNNSDANLELINTWVAKNTNNKISRLLDSLPSDTRLVLLNAIYLSAKWKTTFDPKKTRMEPFHFKNSVIKVPMMNSKKYPVAHFIDQTLKAKVGQLQLSHNLSLVILVPQNLKHRLEDMEQALSPSVFKAIMEKLEMSKFQPTLLTLPRIKVTTSQDMLSIMEKLEFFDFSYDLNLCGLTEDPDLQVSAMQHQTVLELTETGVEAAAASAISVARTLLVFEVQQPFLFVLWDQQHKFPVFMGRVYDPRA
